Laboratory results taken from US20260008815A1, “CYCLIC PEPTIDE OR SALT THEREOF, AND USES THEREOF” (FUJIFILM Corporation, priority 2023, published 2026).
Numbered stars: 1 amine (or outer) side, 2 acyl side, 3 side chain; on linkers, the order of the positions; unused ones are H or OH. Bridge positions count the residues as written; N and C are the ends. Ends that are not written are not given here. acetyl = acetyl (haloacetyl before ring closure) on the side-chain amine, O=C(C[*:1])[*:2]; COCH2 = acetyl group that carries the bridge

The substances below were run against T1, Recombinant Human FGFR2 alpha (IIIc) Fc Chimera Protein (Homo sapiens, UniProt P21802) (assay: ELISA binding affinity of enzymatically synthesized peptide to FGFR). Conditions: ELISA luminescence signal at 10 nmol/L peptide, SEQ ID NO: 47 at 10 nmol/L standardized to 1; enzyme synthesis product.
T1 construct: Fc (chimera); purchased R&D systems 712-FR-050
How it was run: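 FGFR2 alpha (IIIc) Fc chimera (5 ng/well) was immobilized, and Myc-tagged peptide was bound 3 h at room temperature, then detected with anti-Myc antibody (2 h) and chemiluminescent substrate. Signal was corrected against FGFR-free wells. Score A–D was the luminescence at 10 nmol/L peptide, normalized to cyclic peptide SEQ ID NO: 47.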

T1 sequence (P21802 with tags, fused parts or gaps limits assumed): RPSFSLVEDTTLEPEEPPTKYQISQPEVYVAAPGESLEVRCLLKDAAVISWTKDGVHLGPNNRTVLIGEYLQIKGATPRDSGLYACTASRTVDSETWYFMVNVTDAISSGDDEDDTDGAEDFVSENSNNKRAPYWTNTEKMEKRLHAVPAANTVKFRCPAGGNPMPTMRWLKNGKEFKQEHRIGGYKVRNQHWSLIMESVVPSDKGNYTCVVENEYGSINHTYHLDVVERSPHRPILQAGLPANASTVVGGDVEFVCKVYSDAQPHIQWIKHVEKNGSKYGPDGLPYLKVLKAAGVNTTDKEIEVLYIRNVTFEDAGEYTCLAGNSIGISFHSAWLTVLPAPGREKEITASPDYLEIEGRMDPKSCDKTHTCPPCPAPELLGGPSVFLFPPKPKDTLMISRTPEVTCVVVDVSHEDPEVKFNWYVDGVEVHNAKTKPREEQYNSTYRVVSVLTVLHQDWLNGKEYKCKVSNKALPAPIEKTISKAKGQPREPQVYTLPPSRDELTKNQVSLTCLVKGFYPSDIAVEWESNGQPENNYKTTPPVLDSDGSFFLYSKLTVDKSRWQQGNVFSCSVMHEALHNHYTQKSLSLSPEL

Evaluation result of binding affinity to FGFR | Substance
A (0.7 or more) | 334 (YCEENYLDPEQYQYFIYFK(COCH2)A; thioether 2-19 (inferred)) [compound 334]
B (0.5 or more and less than 0.7) | 398 (YCHENYLDPEQHQYFIYFK(COCH2)R; thioether 2-19 (inferred)) [compound 398]
A (0.7 or more) | 356 (YCEENYLDPEQYMYFIYFK(COCH2)Y; thioether 2-19) [compound 356]
A (0.7 or more) | 80 (QCPQNFINPVQWRYFQHYK(COCH2)N; thioether 2-19 (inferred)) [compound 80]
B (0.5 or more and less than 0.7) | 213 (YCEENYLWPEQYQYFIYFK(COCH2)Y; thioether 2-19 (inferred)) [compound 213]
A (0.7 or more) | 239 (YCEENYLDPIQYQYFIYFK(COCH2)Y; thioether 2-19 (inferred)) [compound 239]
B (0.5 or more and less than 0.7) | 394 (YCHENYLDPEQYQYFHYFK(COCH2)R; thioether 2-19 (inferred)) [compound 394]
A (0.7 or more) | 195 (YCEENYIDPEQYQYFIYFK(COCH2)Y; thioether 2-19 (inferred)) [compound 195]
A (0.7 or more) | 139 (ICEENYLDPEQYQYFIYFK(COCH2)Y; thioether 2-19 (inferred)) [compound 139]
A (0.7 or more) | 143 (NCEENYLDPEQYQYFIYFKY; Description of Artificial Sequence: Cyclic peptide) [compound 143]
C (0.1 or more and less than 0.5) | 62 (KCPQNFINPVQARYFQHYK(COCH2)N; thioether 2-19 (inferred)) [compound 62]
C (0.1 or more and less than 0.5) | 273 (YCEENYLDPEQYQNFIYFK(COCH2)Y; thioether 2-19) [compound 273]
A (0.7 or more) | 255 (YCEENYLDPEQWQYFIYFK(COCH2)Y; thioether 2-19 (inferred)) [compound 255]
C (0.1 or more and less than 0.5) | 97 (QCPQSFINPVQWRYFQHYK(COCH2)N; thioether 2-19) [compound 97]
C (0.1 or more and less than 0.5) | 370 (DCQLYYLYQYVLTK(COCH2)V; thioether 2-14) [compound 370]
A (0.7 or more) | 260 (YCEENYLDPEQYVYFIYFK(COCH2)Y; thioether 2-19) [compound 260]
A (0.7 or more) | 165 (YCHENYLDPEQYQYFIYFK(COCH2)Y; thioether 2-19 (inferred)) [compound 165]
B (0.5 or more and less than 0.7) | 109 (DCFINELQYFYIQQYK(COCH2)K; thioether 2-16 (inferred)) [compound 109]
C (0.1 or more and less than 0.5) | 421 (VCLDEQQALFHQYYRITRRK(COCH2)V; thioether 2-20 via acetyl) [compound 421]
C (0.1 or more and less than 0.5) | 236 (YCEENYLDPGQYQYFIYFK(COCH2)Y; thioether 2-19 (inferred)) [compound 236]

Evaluation result of binding affinity to FGFR | Substance
A (0.7 or more) | 331 (YCEENYLDPEQYAYFIYFK(COCH2)Y; thioether 2-19 (inferred)) [compound 331]
C (0.1 or more and less than 0.5) | 368 (QCLIQDLYAYIFK(COCH2)L; thioether 2-13) [compound 368]
A (0.7 or more) | 400 (VCQQDNYFYPQQWFFFVHYK(COCH2)H; thioether 2-20 (inferred)) [compound 400]
A (0.7 or more) | 349 (YCEMNYLDPEQYQYFIYFK(COCH2)Y; thioether 2-19) [compound 349]
A (0.7 or more) | 258 (YCEENYLDPEQYLYFIYFK(COCH2)Y; thioether 2-19 (inferred)) [compound 258]
A (0.7 or more) | 269 (YCEENYLDPEQYRYFIYFK(COCH2)Y; thioether 2-19) [compound 269]
A (0.7 or more) | 48 (GCYWNEVQYYYLQQYKQ; Description of Artificial Sequence: Cyclic peptide) [compound 48]
A (0.7 or more) | 144 (QCEENYLDPEQYQYFIYFKY; Description of Artificial Sequence: Cyclic peptide) [compound 144]
C (0.1 or more and less than 0.5) | 381 (VCQEYYLYQYVYELK(COCH2)Y; thioether 2-15 (inferred)) [compound 381]
C (0.1 or more and less than 0.5) | 423 (WCFTEGIQSTVQLTYSYLYK(COCH2)L; thioether 2-20 via acetyl) [compound 423]
C (0.1 or more and less than 0.5) | 101 (QCPQNFINPVQIRYFQHYK(COCH2)N; thioether 2-19 (inferred)) [compound 101]
C (0.1 or more and less than 0.5) | 99 (QCPQEFINPVQWRYFQHYK(COCH2)N; thioether 2-19) [compound 99]
A (0.7 or more) | 128 (PCVQNYFNDLQWIFLQHYK(COCH2)R; thioether 2-19 (inferred)) [compound 128]
A (0.7 or more) | 285 (YCEENYLDPEQYQYFSYFK(COCH2)Y; thioether 2-19) [compound 285]
A (0.7 or more) | 149 (RCEENYLDPEQYQYFIYFKY; Description of Artificial Sequence: Cyclic peptide) [compound 149]
A (0.7 or more) | 284 (YCEENYLDPEQYQYFQYFK(COCH2)Y; thioether 2-19) [compound 284]
A (0.7 or more) | 315 (YCEENYLDPEQYQYFIYFK(COCH2)Q; thioether 2-19 (inferred)) [compound 315]
A (0.7 or more) | 345 (YCEENYLDPEQYQYFIKFK(COCH2)Y; thioether 2-19) [compound 345]
A (0.7 or more) | 141 (FCEENYLDPEQYQYFIYFKY; Description of Artificial Sequence: Cyclic peptide) [compound 141]
C (0.1 or more and less than 0.5) | 113 (RCINYWSGQQFYFFQQYK(COCH2)F; thioether 2-18 (inferred)) [compound 113]

Evaluation result of binding affinity to FGFR | Substance
B (0.5 or more and less than 0.7) | 59 (KCPQNFIAPVQWRYFQHYK(COCH2)N; thioether 2-19 (inferred)) [compound 59]
A (0.7 or more) | 344 (YCEENYLDPEQYQYFKYFK(COCH2)Y; thioether 2-19) [compound 344]
A (0.7 or more) | 123 (QCQNFITEVQFTYFWHYK(COCH2)T; thioether 2-18 (inferred)) [compound 123]
A (0.7 or more) | 82 (TCPQNFINPVQWRYFQHYK(COCH2)N; thioether 2-19 (inferred)) [compound 82]
B (0.5 or more and less than 0.7) | 396 (YCEENYLDPEQHQYFIYFK(COCH2)R; thioether 2-19 (inferred)) [compound 396]
C (0.1 or more and less than 0.5) | 362 (LCYLYQYLYTTK(COCH2)Y; thioether 2-12) [compound 362]
C (0.1 or more and less than 0.5) | 427 (ECDTADYPQEWIQDVYQYLYK(COCH2)R; thioether 2-21 via acetyl) [compound 427]
A (0.7 or more) | 71 (GCPQNFINPVQWRYFQHYK(COCH2)N; thioether 2-19 (inferred)) [compound 71]
A (0.7 or more) | 283 (YCEENYLDPEQYQYFNYFK(COCH2)Y; thioether 2-19) [compound 283]
A (0.7 or more) | 410 (WCQESSNYLAPLQWYFFNWYK(COCH2)T; thioether 2-21 (inferred)) [compound 410]
A (0.7 or more) | 312 (YCEENYLDPEQYQYFIYFK(COCH2)F; thioether 2-19 (inferred)) [compound 312]
A (0.7 or more) | 188 (YCEENWLDPEQYQYFIYFK(COCH2)Y; thioether 2-19 (inferred)) [compound 188]
A (0.7 or more) | 303 (YCEENYLDPEQYQYFIEFK(COCH2)Y; thioether 2-19 (inferred)) [compound 303]
C (0.1 or more and less than 0.5) | 369 (DCLQFLYLYLYQK(COCH2)T; thioether 2-13) [compound 369]
A (0.7 or more) | 115 (NCPNYWSQIQWHYFQAYK(COCH2)Q; thioether 2-18 (inferred)) [compound 115]
A (0.7 or more) | 157 (YCYENYLDPEQYQYFIYFK(COCH2)Y; thioether 2-19 (inferred)) [compound 157]
A (0.7 or more) | 211 (YCEENYLFPEQYQYFIYFK(COCH2)Y; thioether 2-19 (inferred)) [compound 211]
B (0.5 or more and less than 0.7) | 407 (LCVQGNYQNPTQWYYFQLYK(COCH2)W; thioether 2-20 (inferred)) [compound 407]
